Patent publication US8053415B2, “Compounds having RD targeting motifs” (Washington University in St. Louis, priority 2005, dated 2011)
Entries after “also recorded” stand apart in the source; their conditions may differ. Where a SMILES comes first, the peptide text is derived from it.

Assays:
A549 cells [1] = assay: CyQuant cytotoxicity and proliferation assay; format: cell-based, human; conditions: 48 hours
Experimental: Cells were seeded at 2.5×10^4 cells/well and grown in 96 well plates in the presence of 0−1.5×10^−5 M cypate conjugated peptides for 24 or 48 hours. Cell proliferation was measured using the CyQuant proliferation assay from Molecular Probes (Eugene, Oreg.) per the manufacturer's protocol. Briefly, after incubation the microplate was inverted to remove the media and frozen at −70° C. overnight. The microplate was thawed at room temperature and 200 μL of the CyQuant GR dye/cell-lysis buffer was added to each well. […]
Because the Cyquant assay is based on the adherence of a dye to nucleic acids, the assay is a measure of both proliferative and cytotoxic effects.

β3 knockout VSMC cells = assay: Internalization in integrin β3 knock-out vascular smooth muscle cells; format: cell-based, mice; conditions: 1 μM, 1 hr, 37° C.
Experimental: Having shown that cypate-GRD preferentially binds to β3 integrin in ABI-positive cells, it was hypothesized that it would not internalize in β3 knockout cells. Vascular smooth muscle cells (VSMCs) from the aortas of β3^−/−apoE^−/− and β3^+/+apoE^−/− mice were provided by Dr. Clay F. Semenkovich (Washington University Medical School in St. Louis, Mo.). VSMCs were maintained at 37° C. in humidified atmosphere containing 5% CO2 in Dulbecco's modified Eagle's medium (DMEM) containing 10% fetal bovine serum, 4 mmol/L L-glutamine, 1 mM sodium pyruvate, 100 U/ml penicillin, 0.25 μg/ml amphotericin, 100 μg/ml streptomycin. The internalization of cypate-GRD and cyclic cypate-RGD were compared in β3 knockout and wild-type VSMC cells, essentially as described above.

[2] = Absorption and emission spectral properties in 20% aqueous DMSO; format: physicochemical
Experimental: The spectral properties of cypate and the cypate-peptide conjugates were determined in 20% aqueous DMSO, which solubilizes all the compounds. […] Absorbance measurements were performed with a Beckman Coulter DU 640 spectrophotometer. The fluorescence spectra were recorded on Fluorolog-3 fluorometer (HORIBA Jobin Yvon Inc., Edison, N.J.). To prepare the stock solutions, a high precision analytical balance was used to weigh >2 mg of each compound, which was dissolved in DMSO. The DMSO solutions were then diluted with water to obtain a final solution of 20% aqueous DMSO. An aliquot (known volume) of the solution was transferred to a cuvette with 1 μL precision micropipettes and diluted with 20% aqueous DMSO solvent mixture to give a working solution that absorbs at <1.0 absorbance unit. Aliquots of the working solution were diluted with 20% aqueous DMSO and used to determine the molar absorptivity of each compound. For fluorescence measurements, probe solutions with 0.1 absorbance units were used to minimize inner filter effects.
Previous studies have shown that this solvent mixture boosts fluorescence intensity and is well tolerated by rodents. Additionally, the dyes and their peptide conjugates are soluble in this solvent mixture, providing a common medium for spectral measurements.
Absorbance spectra were measured on a Beckman Coulter DU 640 UV-Visible spectrophotometer. Fluorescence spectra were recorded on a HORIBA Jobin Yvon Fluorolog-3 fluorometer. Stock solutions (1.0 mM) of the conjugates were prepared by dissolving each sample in 80% aqueous DMSO. UV-Vis and fluorescence measurements were carried out by adding 5.0 μL of the stock solutions via a micropipette into 3 mL of 20% aqueous DMSO in a quartz cuvette.

A549 cells [3] = assay: MTT cytotoxicity assay; format: cell-based, human; conditions: up to 100 μM solution in 20% aqueous DMSO, 24 h
Experimental: Cytotoxicity assays were performed using the 3-(4,5-dimethylthiazol-2-yl)-2,5-diphenyltetrazolium bromide (MTT) based in vitro toxicology assay kit (Sigma-Aldrich, St. Louis, Mo.) per the manufacturer's protocol. Briefly, A549 cells were grown in 96 well plates to 75% confluence in phenol red free Dulbecco's Modified Eagle's Medium supplemented with 10% fetal calf serum, 100 units/mL penicillin and 100 units/mL streptomycin. A concentration range (0-125 μM) of the compound to be tested was added to each well in a final volume of 100 μL/well and the cells were incubated for 24 h at 37° C. in 5% CO2. After incubation, the medium was removed and replaced with 100 μL/well phenol red free medium. Absorbances at 570 nm and 690 nm were measured. MTT (10 μL) was added to each well and the cells were incubated for 2 h. […] Absorbance at 570 nm and 690 nm were measured. The Δ570 and Δ690 were determined by taking the difference of the absorbances before and after the addition of MTT. The percent of viable cells, B, was determined according to the formula:
[formula] where λΔ570 was the absorbance of formazan crystals at 570 nm and λΔ690 was background at 690 nm.
The conventional MTT protocol typically involves background subtraction at 690 nm from the absorbance at 570 nm. […] To circumvent this problem, the background absorbance at 690 nm was adjusted by running parallel experiments with and without MTT. […]

[4] = test system: A549 cell membranes (ABI); assay: ABI binding assay using A549 cell membranes; parameters: species or system human; conditions: compared with purified ABI
Description: [SEQ ID NO:1] as the target receptor, tracer, and reference standard, respectively. Echistatin is a polypeptide that binds purified ABI specifically and irreversibly and the radiolabeled analogue is used widely in ABI binding assays. […] Because of the rearrangement of the RGD peptide sequence, the low binding of cypate-GRD peptide to ABI was expected.

[5] = test system: αv, β3, αvβ3 and αIIBβ3 integrins in A549 cells; assay: Immunostaining of integrins in treated and untreated cells; format: cell-based, human; conditions: relative to PBS-treated cells
Experimental: To confirm the receptors that mediate internalization of cypate-GRD in A549 cells, the levels of αv, αIIb, β3, αvβ3, and αIIBβ3 in treated and untreated cells were assessed by immunostaining. Cells were grown on Lab-Tek slides and fixed in 3% paraformaldehyde in PBS for 30 min. After washing three times for 5 min each in PBS, the cells were blocked to mask nonspecific binding sites with PBS containing 1% normal goat serum (blocking solution) for 1 h. Primary antibodies of mouse anti-human αv or β3 integrin antibodies (Chemicon International, Temecula, Calif.) or antihuman αIIBβ3 (GeneTex, Inc., South Bend, Ind.) diluted 1:500 (v/v) in blocking solution were added to each well and incubated overnight at 4° C. After washing three times for 10 min each in PBS, cells were incubated for 1 h with diluted biotinylated-anti-mouse IgG antibody in blocking solution. After washing, antigens were detected with avidin-horseradish peroxidase conjugate and diamino benzidine (Vector Laboratories, Burlingame, Calif.). Slides were counterstained with Mayers Hematoxylin, and the cover slips were mounted for microscopic examination.

Q: Which “cytotoxicity (CyQuant), longer treatment” value (A549 cells [1]) does the source give for `CC1(C)C(/C=C/C=C/C=C/C=C2/N(CCC(=O)NCC(=O)N[C@@H](CCCNC(=N)N)C(=O)N[C@@H](CC(=O)O)C(=O)N[C@@H](CO)C(=O)N3CCC[C@H]3C(=O)N[C@@H](CCCCN)C(=O)O)c3ccc4ccccc4c3C2(C)C)=[N+](CCC(=O)O)c2ccc3ccccc3c21` [Cyp-GRD, Cypate-GRDSPK] (HELM PEPTIDE1{[CC1(C)C(/C=C/C=C/C=C/C=C2/N(CCC(=O)[*:2])c3ccc4ccccc4c3C2(C)C)=[N+](CCC(=O)O)c2ccc3ccccc3c21].G.R.D.S.P.K}$$$$V2.0) here?
A: not

Q: What about the “internalization in β3 knockout cells” value (β3 knockout VSMC cells) of the same compound?
A: not observed

Q: What about the “^abεmax” value [2] of the same compound?
A: 237,680 cm^−1Mol^−1

Q: What about the “^abλmax” value [2] of the same compound?
A: 789 nm

Q: And the “^emλmax” value [2]?
A: 813 nm

Q: And the “cell proliferation or cytotoxicity (percent of viable cells, MTT)” value (A549 cells [3])?
A: did not induce cell proliferation or cytotoxicity; also recorded: not cytotoxic

Q: What about the “ABI binding affinity using A549 cell membranes” value [4] of the same compound?
A: No improvement in the ABI binding affinity

Q: What about the “staining of A549 cells with anti-αv, anti-β3, anti-αvβ3 and anti-αIIBβ3 antibodies after preincubation” value [5] of the same compound?
A: reduced staining
